Source: PMC7794386, “Mechanism of filament formation in UPA-promoted CARD8 and NLRP1 inflammasomes” (Nature Communications, 2021)

B1: caspase-1^CARD (1-95, G20K), as it stands in the fusion m16 (domain or fragment, UniProt P29466 1-95, looked up)
chain: MADKVLKEKRKLFIRSMGEKTINGLLDELLQTRVLNKEEMEKVKRENATVMDKTRALIDSVIPKGAQACQICITYICEEDSYLAGTLGLSADQTS
notes: caspase-1, CARD, residues 1-95, type IIb mutant G20K; Joined on one chain with m17 through a 5x GSS linker; source: E. coli BL21 (DE3), purified as part of the fusion protein m16

Experiments:
[1] = biological target: CARD8^CARD (P446-L537, A452C), MBP tag cleaved (human) (UniProt Q9Y2G2); experiment: negative stain EM of filament formation; purified MBP-fused protein cleaved with 3C protease for 3 h at 37 °C at different concentrations (0.1 to 30 µM), then negatively stained with 1% uranyl formate and imaged
[2] = biological target: the molecule itself; experiment: cryo-EM structure; ASC^CARD-caspase-1^CARD octamer; 25 mM Tris-HCl pH 8.0, 150 mM NaCl, 2 mM DTT; 3.9 Å map
[3] = biological target: the molecule itself; experiment: SEC-MALS; Superdex 200 in 25 mM Tris-HCl pH 8.0, 150 mM NaCl, 2 mM DTT, three-angle light scattering and refractive index detectors, 0.5 mL/min
[4] = biological target: the molecule itself; experiment: SEC; preparative SEC of amylose-purified His-MBP fusions (Superdex 200 for MBP-CARD, Superose 6 for MBP-UPA and MBP-NLRP1-CT); 25 mM Tris-HCl pH 7.5, 150 mM NaCl, 1 mM TCEP
[5] = biological target: B1; experiment: cryo-EM structure; ASC^CARD-caspase-1^CARD octamer; 25 mM Tris-HCl pH 8.0, 150 mM NaCl, 2 mM DTT; 3.9 Å map; conditions: both partners purified

| Molecule | binding result [2] | binding result [4] | further results |
| --- | --- | --- | --- |
| CARD8^CARD (P446-L537, A452C), MBP tag cleaved (from UniProt Q9Y2G2-5 446-537) (domain or fragment) | – | – | minimum concentration required to form filaments [1]: 15 µM |
| B1 | binds | – | – |
| ASC^CARD (106-195, W169G)-5xGSS-caspase-1^CARD (1-95, G20K) fusion protein (other, ASC (apoptosis-associated speck-like protein containing a CARD), CARD, residues 106-195, type IIa mutant W169G; 5x GSS linker, written out from the printed '5XGSS'; caspase-1, CARD, residues 1-95, type IIb mutant G20K; Four fusion chains form an octamer of CARDs; also called ASC^CARD-caspase-1^CARD octamer; ASC^CARD-caspase-1^CARD fusion protein; source: E. coli BL21 (DE3), purified (Ni-NTA, TEV …)) SAAKPGLHFIDQHRAALIARVTNVEWLLDALYGKVLTDEQYQAVRAEPTNPSKMRKLFSFTPAGNWTCKDLLLQALRESQSYLVEDLERSGSSGSSGSSGSSGSSMADKVLKEKRKLFIRSMGEKTINGLLDELLQTRVLNKEEMEKVKRENATVMDKTRALIDSVIPKGAQACQICITYICEEDSYLAGTLGLSADQTS | – | – | stoichiometry N [3]: 4 |
| CARD8 His-MBP-3C-UPA (S297-P446), uncleaved (domain or fragment, human, UniProt Q9Y2G2-5 297-446, looked up, CARD8, human, UPA S297-P446; numbers count on: T60 isoform, UniProt Q9Y2G2-5; Made by a stop codon in the CARD8 His-MBP-3C-UPA-CARD plasmid; also called oligomeric MBP-UPA protein; source: E. coli BL21 (DE3), purified (amylose resin, Superose 6); not shown: His, N-terminal, kept; MBP, N-terminal, kept) SLMGILLRIASGTRLSIPITSNTLIYYHPHPEDIKFHLYLVPSDALLTKAIDDEEDRFHGVRLQTSPPMEPLNFGSSYIVSNSANLKVMPKELKLSYRSPGEIQHFSKFYAGQMKEPIQLEITEKRHGTLVWDTEVKPVDLQLVAASAPP | – | binds | – |
| ASC^CARD (106-195, W169G), as it stands in the fusion m16 (domain or fragment, UniProt Q9ULZ3 106-195, looked up, ASC (apoptosis-associated speck-like protein containing a CARD), CARD, residues 106-195, type IIa mutant W169G; Joined on one chain with m18 through a 5x GSS linker; source: E. coli BL21 (DE3), purified as part of the fusion protein m16) SAAKPGLHFIDQHRAALIARVTNVEWLLDALYGKVLTDEQYQAVRAEPTNPSKMRKLFSFTPAGNWTCKDLLLQALRESQSYLVEDLERS | binds | – | binding result [5]: binds |
| NLRP1 His-MBP-3C-UPA (S1213-P1364), uncleaved (domain or fragment, human, UniProt Q9C000-1 1213-1364, looked up, NLRP1, human, UPA S1213-P1364, isoform 1 (UniProt Q9C000-1); also called oligomeric MBP-UPA protein; source: E. coli BL21 (DE3), purified (amylose resin, Superose 6); not shown: His, N-terminal, kept; MBP, N-terminal, kept) SPLGVLLKMIHNALRFIPVTSVVLLYHRVHPEEVTFHLYLIPSDCSIRKAIDDLEMKFQFVRIHKPPPLTPLYMGCRYTVSGSGSGMLEILPKELELCYRSPGEDQLFSEFYVGHLGSGIRLQVKDKKDETLVWEALVKPGDLMPATTLIPP | – | binds | – |
